{"source": "patent US20170349943", "about": "“METHODS FOR DETECTING ENHANCED NMDA RECEPTOR FUNCTION AND USES THEREOF” (INOVA HEALTH SYSTEM, published 2017)", "binders": {"B1": {"name": "GRIN2B promoter rs3764030 A allele probe (dsDNA)", "DNA 1": "CATCTCCGGGGAACACGCGAA", "DNA 2": "TTCGCGTGTTCCCCGGAGATG"}}, "target": "T1, Elk-1 (Homo sapiens, UniProt P19419 P19419:1-428)", "T1 sequence": "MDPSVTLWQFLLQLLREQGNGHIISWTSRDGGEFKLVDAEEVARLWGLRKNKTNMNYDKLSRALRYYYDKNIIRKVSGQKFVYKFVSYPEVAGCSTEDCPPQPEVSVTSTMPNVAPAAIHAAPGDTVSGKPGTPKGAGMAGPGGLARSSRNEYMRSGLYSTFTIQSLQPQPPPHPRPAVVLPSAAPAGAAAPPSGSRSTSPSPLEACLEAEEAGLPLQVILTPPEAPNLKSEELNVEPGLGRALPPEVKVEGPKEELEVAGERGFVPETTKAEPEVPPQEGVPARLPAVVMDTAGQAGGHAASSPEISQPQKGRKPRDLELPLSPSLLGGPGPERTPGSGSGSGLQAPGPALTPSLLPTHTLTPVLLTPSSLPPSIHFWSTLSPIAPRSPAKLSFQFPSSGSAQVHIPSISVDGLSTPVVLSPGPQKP", "experiment": "EMSA; bound to a greater extent than G allele; 50 mM HEPES pH 7.5, 10 mM MgCl2, on ice 1 h, then Elk-1 antibody", "conditions": "tags: recombinant human Elk-1, Sigma Aldrich", "protocol": "FIG. 2 depicts binding of recombinant Elk-1 protein (an ETS transcription factor) to double stranded DNAs containing the single nucleotide polymorphism (SNP) rs3764030 variant A allele from the human GRIN2B gene promoter. Double-stranded DNA targets (Methods) were sequentially incubated with 1 μg recombinant human Elk-1 protein in EMSA buffer, then incubated with the Elk-1 antibody 20 minutes. […] Samples were electrophoresed through 6% polyacrylamide gels in HEPES buffer pH 6.3, without polydldC. The gel was then stained with the SYBR Green to visualize DNA and SYPRO Ruby for protein bound to DNA. The stained gel was scanned using G:BOX (Syngene, US) for imaging. Elk-1 bound to DNA is indicated by the arrow.\nThe complementary pairs of DNA oligonucleotides were first annealed in Biorad C1000 thermocycler with 1° C./1 min decreasing from 95° C. to 20° C. The annealing buffer composition was 10 mM Tris-HCl pH 8.0, 1 mM EDTA and 50 mM NaCl. The annealed dsDNA was then incubated with 1 μg recombinant human Elk-1 protein (Sigma Aldrich, US) on ice for 1 hour in EMSA buffer, then incubated with the Elk-1 antibody (SC-355)(Santa Cruz Technology, US) 20 minutes in room temperature. The compositions of EMSA buffer was 50 mM HEPES pH7.5, 10 mM MgCl₂, 5% glycerol, 1 mM DTT, 0.3% BSA and 1 mM EDTA. […]", "data": [{"binder": "B1", "values": [{"measurement": "binding result", "result": "binds"}]}]}
